Laboratory results as given in article PMC4960622, “Crystal structures of RidA, an important enzyme for the prevention of toxic side products” (Scientific Reports, 2016).
Residue numbers refer to the chain shown, from its start. Names may count otherwise.

Experiments:
[1] = target: the molecule itself; experiment: SEC; 0.5 mg of RidA WT and mutants loaded separately onto a Superdex-75 size-exclusion column; protein standards as size reference
[2] = target: the molecule itself; experiment: crystal structure; apo form; space group H3, one monomer per asymmetric unit, trimer by the crystallographic 3-fold axis; sitting drop, 18% PEG 3350, 0.1 M MES pH 6.0, 25 °C

B1: Arabidopsis thaliana RidA, construct starting from S68 (AtRidA-S68), wild type (enzyme, UniProt Q94JQ4 68-187, looked up)
chain: STEKAPAALGPYSQAIKANNLVFLSGVLGLIPETGKFVSESVEDQTEQVLKNMGEILKASGADYSSVVKTTIMLADLADFKTVNEIYAKYFPAPSPARSTYQVAALPLNAKIEIECIATL
notes: Reactive Intermediate Deaminase A (RidA), Arabidopsis thaliana, GenBank AY060547.1, residues S68-L187 (without the predicted chloroplast transit peptide); Residues S80-L187 are resolved in the crystal structures; also called RidA WT; apo-AtRidA; source: E. coli BL21 (DE3), purified (Ni-NTA, PreScission cleavage, Histrap); not shown: His6, N-terminal, cleaved
stoichiometry N [1]: ~3 | stoichiometry N [2]: 3

B2: AtRidA-S68 K136R (enzyme, Arabidopsis thaliana, UniProt Q94JQ4 68-187, looked up)
chain: B1 chain with K69R
notes: Reactive Intermediate Deaminase A (RidA), Arabidopsis thaliana, GenBank AY060547.1, residues S68-L187, made by QuikChange on the RidA-S68/pET28a(+) plasmid; The purification of the mutants is not described separately; probably as for the wild type (tag cleaved); also called RidA-K136R; source: E. coli BL21 (DE3), purified
binding result [1]: binds

B3: AtRidA-S68 E182A (enzyme, Arabidopsis thaliana, UniProt Q94JQ4 68-187, looked up)
chain: B1 chain with E115A
notes: Reactive Intermediate Deaminase A (RidA), Arabidopsis thaliana, GenBank AY060547.1, residues S68-L187, made by QuikChange on the RidA-S68/pET28a(+) plasmid; The purification of the mutants is not described separately; probably as for the wild type (tag cleaved); also called RidA-E182A; source: E. coli BL21 (DE3), purified
binding result [1]: binds

B4: AtRidA-S68 S92A (enzyme, Arabidopsis thaliana, UniProt Q94JQ4 68-187, looked up)
chain: B1 chain with S25A
notes: Reactive Intermediate Deaminase A (RidA), Arabidopsis thaliana, GenBank AY060547.1, residues S68-L187, made by QuikChange on the RidA-S68/pET28a(+) plasmid; The purification of the mutants is not described separately; probably as for the wild type (tag cleaved); also called RidA-S92A; source: E. coli BL21 (DE3), purified
binding result [1]: binds

B5: AtRidA-S68 S166A (enzyme, Arabidopsis thaliana, UniProt Q94JQ4 68-187, looked up)
chain: B1 chain with S99A
notes: Reactive Intermediate Deaminase A (RidA), Arabidopsis thaliana, GenBank AY060547.1, residues S68-L187, made by QuikChange on the RidA-S68/pET28a(+) plasmid; The purification of the mutants is not described separately; probably as for the wild type (tag cleaved); also called RidA-S166A; source: E. coli BL21 (DE3), purified
binding result [1]: binds

B6: AtRidA-S68 S80A (enzyme, Arabidopsis thaliana, UniProt Q94JQ4 68-187, looked up)
chain: B1 chain with S13A
notes: Reactive Intermediate Deaminase A (RidA), Arabidopsis thaliana, GenBank AY060547.1, residues S68-L187, made by QuikChange on the RidA-S68/pET28a(+) plasmid; The purification of the mutants is not described separately; probably as for the wild type (tag cleaved); also called RidA-S80A; source: E. coli BL21 (DE3), purified
binding result [1]: binds
